Common to all, as to assay: SEC
(In general: In gel filtration, larger molecules generally elute earlier.)

The target of experiment [1] is dengue virus 2 capsid protein (DENV2C), wild type (dengue virus 2).
Experiment [2] deals with DENV2C L50S (dengue virus 2).
The target of experiment [3] is DENV2C I88N (dengue virus 2).
In experiment [4] the target is DENV2C L54S (dengue virus 2).
The target of experiment [5] is DENV2C L81N (dengue virus 2).

The term stoichiometry N denotes the number of molecules, sites or subunits per partner or assembly. In turn, “dengue virus 2 capsid protein (DENV2C), wild type (natural protein)” had a stoichiometry N in experiment [1] of 2. In the case of DENV2C L50S (natural protein), the stoichiometry N in experiment [2] was 2. In the case of DENV2C I88N (natural protein), the stoichiometry N in experiment [3] amounted to 2. The substance DENV2C L54S (natural protein) displayed a stoichiometry N in experiment [4] of 2. Substance DENV2C L81N (natural protein) had a stoichiometry N in experiment [5] of 2.

For the origin of these results see PMC6391532.
